Assay results: patent KR20230128271A (dated 2023)

Target: T1, human recombinant HER3 (coated on ELISA plate) (human, UniProt P21860 20-643)
T1 construct: also called 인간 재조합 HER3
Assay: ELISA; plate coated with human recombinant HER3; serial dilutions 0-100 μg/ml; goat anti-human IgG F(ab')2-HRP; absorbance at 450 nm

T1 sequence (P21860 20-643 limits assumed): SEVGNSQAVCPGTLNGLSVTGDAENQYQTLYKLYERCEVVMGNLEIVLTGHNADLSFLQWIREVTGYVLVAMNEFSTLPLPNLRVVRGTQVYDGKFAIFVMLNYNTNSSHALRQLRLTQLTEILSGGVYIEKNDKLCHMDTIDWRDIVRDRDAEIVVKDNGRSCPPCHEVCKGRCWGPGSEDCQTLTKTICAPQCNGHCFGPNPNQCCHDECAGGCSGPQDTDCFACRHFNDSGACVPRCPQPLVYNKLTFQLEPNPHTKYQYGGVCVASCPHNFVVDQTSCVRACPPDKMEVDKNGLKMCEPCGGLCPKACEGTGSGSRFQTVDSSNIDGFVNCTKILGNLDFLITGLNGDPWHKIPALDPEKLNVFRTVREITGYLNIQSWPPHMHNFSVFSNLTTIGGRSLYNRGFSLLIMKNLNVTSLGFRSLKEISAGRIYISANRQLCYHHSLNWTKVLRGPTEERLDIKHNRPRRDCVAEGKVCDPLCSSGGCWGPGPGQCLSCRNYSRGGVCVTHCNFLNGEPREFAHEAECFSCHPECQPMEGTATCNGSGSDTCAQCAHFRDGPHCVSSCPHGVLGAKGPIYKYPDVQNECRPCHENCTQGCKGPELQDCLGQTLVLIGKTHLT

EC50 | Binder
1.7 ng/mL | 225Ac-HER3-ARC (Ac225-labelled, DOTA-conjugated anti-HER3 monoclonal antibody, heavy chain SEQ ID NO: 77 and light chain SEQ ID NO: 78) (antibody, V domains shown, DOTA chelator conjugated with p-SCN-Bn-DOTA and chelating actinium-225; sites and chain not stated, also called Ac225 표지된 DOTA-접합된 항-HER3 모노클로날 항체) VH: QVQLVESGGGLVKPGGSLRLSCAASGFTFSDYAMSWIRQAPGKGLEWVSTISDGGTYTYYPDSVKGRFTISRDNAKNSLYLQMNSLRAEDTAVYYCAREWGDYDGFDYWGQGTLVTVSS VL: DIQMTQSPSSLSASVGDRVTITCRASQEISGYLSWYQQKPGKAPKRLIYAASTLDSGVPSRFSGSGSGTEFTLTISSLQPEDFATYYCLQYDSYPYTFGQGTKLEIKR
2.2 ng/mL | anti-HER3 IgG monoclonal antibody consisting of heavy chain SEQ ID NO: 77 and light chain SEQ ID NO: 78 (unmodified) (antibody, V domains shown, It was detected with goat anti-human IgG F(ab')2-HRP; also called 항-HER3; 비변형된 항-HER3 mAb) VH: QVQLVESGGGLVKPGGSLRLSCAASGFTFSDYAMSWIRQAPGKGLEWVSTISDGGTYTYYPDSVKGRFTISRDNAKNSLYLQMNSLRAEDTAVYYCAREWGDYDGFDYWGQGTLVTVSS VL: DIQMTQSPSSLSASVGDRVTITCRASQEISGYLSWYQQKPGKAPKRLIYAASTLDSGVPSRFSGSGSGTEFTLTISSLQPEDFATYYCLQYDSYPYTFGQGTKLEIKR
